# Source: paper PMC6348423, “Rapid Mapping of Protein Interactions Using Tag‐Transfer Photocrosslinkers” (Angewandte Chemie (International Ed. in English), 2018)
# Ends that are not written are not given here. Peptide text beside a SMILES is read from it. * marks the point of attachment. MTS‑TFMD = trifluoromethyl phenyl diazirine photocrosslinker tag, disulfide-linked to Cys via MTS; MTS‑diazirine = alkyl diazirine tag, disulfide-linked to Cys via MTS; X1 = FC(F)(F)C1(c2ccc(CS*)cc2)N=N1; X2 = CC1(CCS*)N=N1
# T1: MCL-1 (human, UniProt Q07820 1-350)
# T1 chain: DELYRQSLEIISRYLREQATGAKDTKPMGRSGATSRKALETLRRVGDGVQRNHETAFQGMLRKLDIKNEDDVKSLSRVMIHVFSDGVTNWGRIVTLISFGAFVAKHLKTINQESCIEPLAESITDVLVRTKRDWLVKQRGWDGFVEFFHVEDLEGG
# B1: WT BID_(80-102) (peptide)
# peptide: EDIIRNIARHLAQVGDSMDRSIP
# modifications: Limits not printed in the main text (supplement); 172-327 is the usual soluble MCL-1 construct for BH3 assays, close to the PDB 2KBW construct
# B2: BID_(80-102) S100C tagged with MTS-diazirine (peptide)
# chain: EDIIRNIARHLAQVGDSMDRCIP
# modifications: Cys100 disulfide-linked to MTS-diazirine (alkyl diazirine) tag; synthetic peptide, termini not stated in main text Limits not printed in the main text (supplement); 172-327 is the usual soluble MCL-1 construct for BH3 assays, close to the PDB 2KBW construct
# B3: BID_(80-102) S100C tagged with MTS-TFMD (peptide)
# chain: EDIIRNIARHLAQVGDSMDRCIP
# modifications: Cys100 disulfide-linked to MTS-TFMD (trifluoromethyl phenyl diazirine) tag; synthetic peptide, termini not stated in main text Limits not printed in the main text (supplement); 172-327 is the usual soluble MCL-1 construct for BH3 assays, close to the PDB 2KBW construct
# Target: T2, MCL-1 (Homo sapiens, UniProt Q07820)
# T2 construct: made in house
# T2 sequence (Q07820 whole entry): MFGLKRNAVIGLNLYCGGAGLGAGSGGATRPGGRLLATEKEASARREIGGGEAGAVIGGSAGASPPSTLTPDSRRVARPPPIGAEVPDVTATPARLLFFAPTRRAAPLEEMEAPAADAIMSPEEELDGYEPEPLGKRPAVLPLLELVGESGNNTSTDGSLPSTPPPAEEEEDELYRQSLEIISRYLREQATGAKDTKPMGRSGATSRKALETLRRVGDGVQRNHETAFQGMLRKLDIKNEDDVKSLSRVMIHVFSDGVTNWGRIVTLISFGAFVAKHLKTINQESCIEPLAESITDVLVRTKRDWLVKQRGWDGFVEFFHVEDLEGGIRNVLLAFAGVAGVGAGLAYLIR
# Test: Photo-crosslinking of labelled BID80-102 peptides to MCL-1, SDS-PAGE band intensity
# Details: 20 μM labelled peptide + 20 μM MCL-1, TBS pH 7.6; 365 nm UV LED, 1 min; SDS-PAGE band intensity of crosslinked vs non-crosslinked MCL-1; value ± SD of three repeats
# Protocol: Cross-linking experiments
# For all irradiation methods, samples were prepared in the following way. For crosslinking of MCL-1/BID80-102, 20 μL of a solution containing MTS-diazirine or MTS-TFMD labelled BID80-102 peptide (20 μM) and MCL-1 (20 μM) in buffer 50 mM Tris-HCl, 150 mM NaCl (TBS) pH 7.6 was prepared. […]
# This was then placed under a covered LF-206.LS 6 W 365 nm lamp (Uvitec) at a distance of 12 mm from the source for different times up to 30 min. For UV LED chip experiments, acrylic chip chambers were washed with TBS pH 7.6 buffer and 33 µL of sample was added. These were then clamped into the chip holder and irradiated with the 365 nm LED for up to 30 s. A pipette was used to remove the sample from the chip via the lower filling hole. For UV LED tube experiments, 30-130 µL of sample was added to a thin-walled PCR tube and placed inside a 0.5 mL microfuge tube which itself was in a 1.5 mL microfuge tube that had been wrapped in aluminium foil (to reflect the UV irradiation within the containers). Samples were irradiated with the 365 nm LED for 30 s. To crosslink MCL-1 BID80-102, samples were irradiated using this apparatus for 1 min.
# Separation and enrichment of cross-linked products
# To separate and/or enrich crosslinked samples three methods were used as described in the main text.
# Table S1: Affinity (EC50) of labelled BID80-102 peptides to MCL-1 as determined by competition fluorescence anisotropy assay. Crosslinking efficiency of labelled BID80-102 peptides to MCL-1 based on the SDS-PAGE band intensity of crosslinked and non-crosslinked […]
# The values and standard deviations are results of three repeats. n.d = not determined as binding was too weak to enable an accurate fit to be obtained.
# BID peptide EC50 for affinity to MCL-1 (nM) Crosslinked Mcl-1 (%)
row,Crosslinked Mcl-1 (crosslinking efficiency),Molecule
1,0%,"CC[C@H](C)[C@H](NC(=O)[C@H](CC(N)=O)NC(=O)[C@H](CCCNC(=N)N)NC(=O)[C@@H](NC(=O)[C@@H](NC(=O)[C@H](CC(=O)O)NC(=O)[C@H](CCC(=O)O)NC(C)=O)[C@@H](C)CC)[C@@H](C)CC)C(=O)N[C@@H](C)C(=O)N[C@@H](CCCNC(=N)N)C(=O)N[C@@H](Cc1c[nH]cn1)C(=O)N[C@@H](CC(C)C)C(=O)N[C@@H](C)C(=O)N[C@@H](CCC(N)=O)C(=O)N[C@H](C(=O)NCC(=O)N[C@@H](CC(=O)O)C(=O)N[C@@H](CO)C(=O)N[C@@H](CCSC)C(=O)N[C@@H](CC(=O)O)C(=O)N[C@@H](CCCNC(=N)N)C(=O)N[C@@H](CO)C(=O)N[C@H](C(=O)N[C@@H](Cc1c[nH]c2ccccc12)C(N)=O)[C@@H](C)CC)C(C)C [WT, reference compound]"

# Same assay, conditions: 20 μM labelled peptide + 20 μM MCL-1, TBS pH 7.6; 365 nm UV LED, 1 min; SDS-PAGE band intensity of crosslinked vs non-crosslinked MCL-1; value ± SD of three repeats; SD
row,Crosslinked Mcl-1 (crosslinking efficiency),Molecule
1,40 ± 8%,"MTS-TMFD labelled V93C: single Cys variant V93C of BID80–102 tagged with MTS-TFMD (EDIIRNIARHLAQC(MTS‑TFMD)GDSMDRSIP; UniProt P55957 80-102, looked up, fragment V93C)"
2,16 ± 2%,CC[C@H](C)[C@H](NC(=O)[C@H](CO)NC(=O)[C@H](CCCNC(=N)N)NC(=O)[C@H](CC(=O)O)NC(=O)[C@H](CCSC)NC(=O)[C@H](CO)NC(=O)[C@H](CC(=O)O)NC(=O)CNC(=O)[C@@H](NC(=O)[C@H](CCC(N)=O)NC(=O)[C@H](C)NC(=O)[C@H](CC(C)C)NC(=O)[C@H](Cc1c[nH]cn1)NC(=O)[C@H](CCCNC(=N)N)NC(=O)[C@H](C)NC(=O)[C@H](CSSCCC1(C)N=N1)NC(=O)[C@H](CC(N)=O)NC(=O)[C@H](CCCNC(=N)N)NC(=O)[C@@H](NC(=O)[C@@H](NC(=O)[C@H](CC(=O)O)NC(=O)[C@H](CCC(=O)O)NC(C)=O)[C@@H](C)CC)[C@@H](C)CC)C(C)C)C(=O)N[C@@H](Cc1c[nH]c2ccccc12)C(N)=O [MTS-diazirine labelled I86C] (Ac-EDIIRNC(X2)ARHLAQVGDSMDRSIW-NH2)
3,9 ± 3%,CC[C@H](C)[C@H](NC(=O)[C@H](CC(N)=O)NC(=O)[C@H](CCCNC(=N)N)NC(=O)[C@@H](NC(=O)[C@@H](NC(=O)[C@H](CC(=O)O)NC(=O)[C@H](CCC(=O)O)NC(C)=O)[C@@H](C)CC)[C@@H](C)CC)C(=O)N[C@@H](C)C(=O)N[C@@H](CCCNC(=N)N)C(=O)N[C@@H](Cc1c[nH]cn1)C(=O)N[C@@H](CC(C)C)C(=O)N[C@@H](C)C(=O)N[C@@H](CCC(N)=O)C(=O)N[C@@H](CSSCCC1(C)N=N1)C(=O)NCC(=O)N[C@@H](CC(=O)O)C(=O)N[C@@H](CO)C(=O)N[C@@H](CCSC)C(=O)N[C@@H](CC(=O)O)C(=O)N[C@@H](CCCNC(=N)N)C(=O)N[C@@H](CO)C(=O)N[C@H](C(=O)N[C@@H](Cc1c[nH]c2ccccc12)C(N)=O)[C@@H](C)CC [MTS-diazirine labelled V93C] (Ac-EDIIRNIARHLAQC(X2)GDSMDRSIW-NH2)
4,53 ± 1%,CC[C@H](C)[C@H](NC(=O)[C@H](CO)NC(=O)[C@H](CCCNC(=N)N)NC(=O)[C@H](CC(=O)O)NC(=O)[C@H](CCSC)NC(=O)[C@H](CO)NC(=O)[C@H](CC(=O)O)NC(=O)CNC(=O)[C@@H](NC(=O)[C@H](CCC(N)=O)NC(=O)[C@H](C)NC(=O)[C@H](CC(C)C)NC(=O)[C@H](Cc1c[nH]cn1)NC(=O)[C@H](CCCNC(=N)N)NC(=O)[C@H](C)NC(=O)[C@H](CSSCc1ccc(C2(C(F)(F)F)N=N2)cc1)NC(=O)[C@H](CC(N)=O)NC(=O)[C@H](CCCNC(=N)N)NC(=O)[C@@H](NC(=O)[C@@H](NC(=O)[C@H](CC(=O)O)NC(=O)[C@H](CCC(=O)O)NC(C)=O)[C@@H](C)CC)[C@@H](C)CC)C(C)C)C(=O)N[C@@H](Cc1c[nH]c2ccccc12)C(N)=O [MTS-TMFD labelled I86C] (Ac-EDIIRNC(X1)ARHLAQVGDSMDRSIW-NH2)
5,26 ± 1%,CC[C@H](C)[C@H](NC(=O)[C@H](CC(N)=O)NC(=O)[C@H](CCCNC(=N)N)NC(=O)[C@@H](NC(=O)[C@@H](NC(=O)[C@H](CC(=O)O)NC(=O)[C@H](CCC(=O)O)NC(C)=O)[C@@H](C)CC)[C@@H](C)CC)C(=O)N[C@@H](C)C(=O)N[C@@H](CCCNC(=N)N)C(=O)N[C@@H](Cc1c[nH]cn1)C(=O)N[C@@H](CC(C)C)C(=O)N[C@@H](C)C(=O)N[C@@H](CCC(N)=O)C(=O)N[C@H](C(=O)NCC(=O)N[C@@H](CC(=O)O)C(=O)N[C@@H](CO)C(=O)N[C@@H](CSSCc1ccc(C2(C(F)(F)F)N=N2)cc1)C(=O)N[C@@H](CC(=O)O)C(=O)N[C@@H](CCCNC(=N)N)C(=O)N[C@@H](CO)C(=O)N[C@H](C(=O)N[C@@H](Cc1c[nH]c2ccccc12)C(N)=O)[C@@H](C)CC)C(C)C [MTS-TMFD labelled M97C] (Ac-EDIIRNIARHLAQVGDSC(X1)DRSIW-NH2)
6,19 ± 2%,CC[C@H](C)[C@H](NC(=O)[C@H](CC(N)=O)NC(=O)[C@H](CCCNC(=N)N)NC(=O)[C@H](CSSCCC1(C)N=N1)NC(=O)[C@@H](NC(=O)[C@H](CC(=O)O)NC(=O)[C@H](CCC(=O)O)NC(C)=O)[C@@H](C)CC)C(=O)N[C@@H](C)C(=O)N[C@@H](CCCNC(=N)N)C(=O)N[C@@H](Cc1c[nH]cn1)C(=O)N[C@@H](CC(C)C)C(=O)N[C@@H](C)C(=O)N[C@@H](CCC(N)=O)C(=O)N[C@H](C(=O)NCC(=O)N[C@@H](CC(=O)O)C(=O)N[C@@H](CO)C(=O)N[C@@H](CCSC)C(=O)N[C@@H](CC(=O)O)C(=O)N[C@@H](CCCNC(=N)N)C(=O)N[C@@H](CO)C(=O)N[C@H](C(=O)N[C@@H](Cc1c[nH]c2ccccc12)C(N)=O)[C@@H](C)CC)C(C)C [MTS-diazirine labelled I83C] (Ac-EDIC(X2)RNIARHLAQVGDSMDRSIW-NH2)
7,51 ± 6%,CC[C@H](C)[C@H](NC(=O)[C@H](CC(N)=O)NC(=O)[C@H](CCCNC(=N)N)NC(=O)[C@H](CSSCc1ccc(C2(C(F)(F)F)N=N2)cc1)NC(=O)[C@@H](NC(=O)[C@H](CC(=O)O)NC(=O)[C@H](CCC(=O)O)NC(C)=O)[C@@H](C)CC)C(=O)N[C@@H](C)C(=O)N[C@@H](CCCNC(=N)N)C(=O)N[C@@H](Cc1c[nH]cn1)C(=O)N[C@@H](CC(C)C)C(=O)N[C@@H](C)C(=O)N[C@@H](CCC(N)=O)C(=O)N[C@H](C(=O)NCC(=O)N[C@@H](CC(=O)O)C(=O)N[C@@H](CO)C(=O)N[C@@H](CCSC)C(=O)N[C@@H](CC(=O)O)C(=O)N[C@@H](CCCNC(=N)N)C(=O)N[C@@H](CO)C(=O)N[C@H](C(=O)N[C@@H](Cc1c[nH]c2ccccc12)C(N)=O)[C@@H](C)CC)C(C)C [MTS-TMFD labelled I83C] (Ac-EDIC(X1)RNIARHLAQVGDSMDRSIW-NH2)

# Target: T1, MCL-1
# Test: FP
# Details: not given
row,EC50,Molecule
1,460 nM,B1
2,1410 nM,EDIIRNC(MTS‑TFMD)ARHLAQVGDSMDRSIP [BID_(80-102) I86C tagged with MTS-TFMD]
3,338 nM,EDIC(MTS‑TFMD)RNIARHLAQVGDSMDRSIP [BID_(80-102) I83C tagged with MTS-TFMD]
4,8750 nM,EDIIRNIARHLAQC(MTS‑diazirine)GDSMDRSIP [BID_(80-102) V93C tagged with MTS-diazirine]
5,5510 nM,EDIIRNC(MTS‑diazirine)ARHLAQVGDSMDRSIP [BID_(80-102) I86C tagged with MTS-diazirine]
6,422 nM,EDIIRNIARHLAQVGDSC(MTS‑diazirine)DRSIP [BID_(80-102) M97C tagged with MTS-diazirine]
7,360 nM,B2
8,287 nM,B3
9,255 nM,EDIIRNIARHLAQVGDSC(MTS‑TFMD)DRSIP [BID_(80-102) M97C tagged with MTS-TFMD]
10,406 nM,EDIC(MTS‑diazirine)RNIARHLAQVGDSMDRSIP [BID_(80-102) I83C tagged with MTS-diazirine]
